For 94 variants, protein stability index results are on record in the supplement of paper PMC10567573.

To fix the notation:
B1: TPD52L1 (parent)
chain: ISKKFGDMSYSIRHSISMPAMRNS
B2: PTPN9 (parent)
chain: LKGAFPARLKKVLIVGAPIWFRVP
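Further: lentivirally expressed fusions sorted by FACS into six bins by GFP to DsRed ratio, PSI derived from sequencing read proportions per bin multiplied by bin number.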

One data set covers variants of B1. In words: protein stability index of a GFP-peptide fusion (GPS, HEK-293T) (PSI 1-6); higher = more stable. To be noted: c terminus: a fixed tail appended.
On to ISKKFGDASYSIRHSISMPAMRNS [M8A], for which the protein stability index stood at 2.87.

Consider ISKKFGDFSYSIRHSISMPAMRNS [M8F], for which the protein stability index worked out at 2.19.

With ISKKFGDCSYSIRHSISMPAMRNS [M8C], the protein stability index was determined as 1.96.

For IAKKFGDMSYSIRHSISMPAMRNS [S2A], the protein stability index was determined as 2.41.

In the case of IIKKFGDMSYSIRHSISMPAMRNS [S2I], the protein stability index was 2.97.

Regarding INKKFGDMSYSIRHSISMPAMRNS [S2N], the protein stability index was 2.37.

Regarding IVKKFGDMSYSIRHSISMPAMRNS [S2V], the protein stability index stood at 2.34.

Consider IMKKFGDMSYSIRHSISMPAMRNS [S2M], for which the protein stability index is 1.75.

On to IGKKFGDMSYSIRHSISMPAMRNS [S2G], for which the protein stability index stood at 2.88.

In the case of IFKKFGDMSYSIRHSISMPAMRNS [S2F], the protein stability index was 1.74.

ILKKFGDMSYSIRHSISMPAMRNS [S2L]: the protein stability index came out at 2.97.

With IDKKFGDMSYSIRHSISMPAMRNS [S2D], the protein stability index worked out at 2.94.

Take IRKKFGDMSYSIRHSISMPAMRNS [S2R]: the protein stability index amounted to 2.54.

For the variant ITKKFGDMSYSIRHSISMPAMRNS [S2T], the protein stability index was 2.21.

For the variant IYKKFGDMSYSIRHSISMPAMRNS [S2Y], the protein stability index stood at 1.74.

Turning to IKKKFGDMSYSIRHSISMPAMRNS [S2K], the protein stability index turned out to be 2.74.

With IEKKFGDMSYSIRHSISMPAMRNS [S2E], the protein stability index was 2.83.

For the variant ICKKFGDMSYSIRHSISMPAMRNS [S2C], the protein stability index worked out at 1.82.

As to IHKKFGDMSYSIRHSISMPAMRNS [S2H], the protein stability index was found to be 2.11.

IQKKFGDMSYSIRHSISMPAMRNS [S2Q]: the protein stability index turned out to be 2.37.

Take IPKKFGDMSYSIRHSISMPAMRNS [S2P]: the protein stability index was 2.89.

For the variant IWKKFGDMSYSIRHSISMPAMRNS [S2W], the protein stability index was found to be 1.83.

As to ISKKFGDMVYSIRHSISMPAMRNS [S9V], the protein stability index is 2.03.

As for ISKKFGDMDYSIRHSISMPAMRNS [S9D], the protein stability index came to 2.36.

With ISKKFGDMCYSIRHSISMPAMRNS [S9C], the protein stability index worked out at 1.88.

Take ISKKFGDMTYSIRHSISMPAMRNS [S9T]: the protein stability index worked out at 2.

With ISKKFGDMAYSIRHSISMPAMRNS [S9A], the protein stability index was 2.23.

Consider ISKKFGDMNYSIRHSISMPAMRNS [S9N], for which the protein stability index is 2.36.

On to ISKKFGDMMYSIRHSISMPAMRNS [S9M], for which the protein stability index stood at 1.51.

Consider ISKKFGDMGYSIRHSISMPAMRNS [S9G], for which the protein stability index is 2.27.

As for ISKKFGDMYYSIRHSISMPAMRNS [S9Y], the protein stability index was found to be 1.98.

For ISKKFGDMPYSIRHSISMPAMRNS [S9P], the protein stability index was 2.03.

For ISKKFGDMQYSIRHSISMPAMRNS [S9Q], the protein stability index was 2.31.

For ISKKFGDMRYSIRHSISMPAMRNS [S9R], the protein stability index was 2.22.

Regarding ISKKFGDMEYSIRHSISMPAMRNS [S9E], the protein stability index stood at 2.34.

ISKKFGDMWYSIRHSISMPAMRNS [S9W]: the protein stability index came out at 2.69.

Regarding ISKKFGDMFYSIRHSISMPAMRNS [S9F], the protein stability index amounted to 2.

Consider ISKKFGDMHYSIRHSISMPAMRNS [S9H], for which the protein stability index is 2.38.

As to ISKKFGDMIYSIRHSISMPAMRNS [S9I], the protein stability index was determined as 2.59.

ISKKFGDMLYSIRHSISMPAMRNS [S9L]: the protein stability index amounted to 1.42.

Take ISKKFGDMKYSIRHSISMPAMRNS [S9K]: the protein stability index was found to be 2.37.

In the case of ISKKVGDMSYSIRHSISMPAMRNS [F5V], the protein stability index is 2.51.

Take ISKKIGDMSYSIRHSISMPAMRNS [F5I]: the protein stability index is 2.37.

For ISKKKGDMSYSIRHSISMPAMRNS [F5K], the protein stability index was determined as 2.44.

Consider ISKKGGDMSYSIRHSISMPAMRNS [F5G], for which the protein stability index is 3.29.

With ISKKYGDMSYSIRHSISMPAMRNS [F5Y], the protein stability index came to 2.56.

On to ISKKQGDMSYSIRHSISMPAMRNS [F5Q], for which the protein stability index turned out to be 2.78.

Take ISKKDGDMSYSIRHSISMPAMRNS [F5D]: the protein stability index came to 2.46.

Regarding ISKKWGDMSYSIRHSISMPAMRNS [F5W], the protein stability index is 2.5.

With ISKKMGDMSYSIRHSISMPAMRNS [F5M], the protein stability index worked out at 2.29.

On to ISKKAGDMSYSIRHSISMPAMRNS [F5A], for which the protein stability index came to 2.97.

For the variant ISKKEGDMSYSIRHSISMPAMRNS [F5E], the protein stability index is 3.06.

Consider ISKKRGDMSYSIRHSISMPAMRNS [F5R], for which the protein stability index is 2.45.

As to ISKKHGDMSYSIRHSISMPAMRNS [F5H], the protein stability index stood at 2.72.

As to ISKKSGDMSYSIRHSISMPAMRNS [F5S], the protein stability index is 2.67.

Take ISKKNGDMSYSIRHSISMPAMRNS [F5N]: the protein stability index came out at 2.48.

In the case of ISKKTGDMSYSIRHSISMPAMRNS [F5T], the protein stability index was 2.24.

With ISKKLGDMSYSIRHSISMPAMRNS [F5L], the protein stability index is 1.78.

With ISKKPGDMSYSIRHSISMPAMRNS [F5P], the protein stability index turned out to be 2.85.

Regarding ISKKCGDMSYSIRHSISMPAMRNS [F5C], the protein stability index amounted to 2.26.

For HSKKFGDMSYSIRHSISMPAMRNS [I1H], the protein stability index was 2.42.

Regarding RSKKFGDMSYSIRHSISMPAMRNS [I1R], the protein stability index turned out to be 2.16.

For the variant ESKKFGDMSYSIRHSISMPAMRNS [I1E], the protein stability index turned out to be 2.9.

On to DSKKFGDMSYSIRHSISMPAMRNS [I1D], for which the protein stability index was 3.33.

In the case of QSKKFGDMSYSIRHSISMPAMRNS [I1Q], the protein stability index was determined as 2.88.

Consider SSKKFGDMSYSIRHSISMPAMRNS [I1S], for which the protein stability index is 3.16.

In the case of LSKKFGDMSYSIRHSISMPAMRNS [I1L], the protein stability index turned out to be 2.23.

Consider PSKKFGDMSYSIRHSISMPAMRNS [I1P], for which the protein stability index worked out at 2.89.

Consider TSKKFGDMSYSIRHSISMPAMRNS [I1T], for which the protein stability index worked out at 2.9.

As to MSKKFGDMSYSIRHSISMPAMRNS [I1M], the protein stability index came out at 2.33.

GSKKFGDMSYSIRHSISMPAMRNS [I1G]: the protein stability index stood at 2.65.

Regarding FSKKFGDMSYSIRHSISMPAMRNS [I1F], the protein stability index is 1.88.

NSKKFGDMSYSIRHSISMPAMRNS [I1N]: the protein stability index turned out to be 2.87.

As to YSKKFGDMSYSIRHSISMPAMRNS [I1Y], the protein stability index was found to be 1.54.

On to VSKKFGDMSYSIRHSISMPAMRNS [I1V], for which the protein stability index was 3.17.

Regarding KSKKFGDMSYSIRHSISMPAMRNS [I1K], the protein stability index stood at 2.17.

Take CSKKFGDMSYSIRHSISMPAMRNS [I1C]: the protein stability index turned out to be 2.26.

Consider ASKKFGDMSYSIRHSISMPAMRNS [I1A], for which the protein stability index was 2.58.

Turning to WSKKFGDMSYSIRHSISMPAMRNS [I1W], the protein stability index came out at 2.2.

Another data set covers variants of B2. The description is as above. To be noted: c terminus: a fixed tail appended.
As to LKGAFPARLKEVLIVGAPIWFRVP [K11E], the protein stability index is 2.73.

As for LKGAFPARLKHVLIVGAPIWFRVP [K11H], the protein stability index was determined as 1.99.

Consider LKGATPARLKKVLIVGAPIWFRVP [F5T], for which the protein stability index turned out to be 2.25.

With LKGAFPARLKKVNIVGAPIWFRVP [L13N], the protein stability index was 1.7.

As for LKGAFPARLKKALIVGAPIWFRVP [V12A], the protein stability index came to 3.43.

As for LKGAFPVRLKKVLIVGAPIWFRVP [A7V], the protein stability index amounted to 2.57.

Consider LKGAFPARLKKVLIVGAWIWFRVP [P18W], for which the protein stability index turned out to be 4.58.

On to LKGAFPARLKKVLIVGACIWFRVP [P18C], for which the protein stability index turned out to be 2.33.

On to LKGAFPARLKKVLIVGAPIWLRVP [F21L], for which the protein stability index stood at 1.57.

As for LKGAFPARLKKVLIVGAPEWFRVP [I19E], the protein stability index was 2.64.

As to LKGAFPARLKKVLIVGAPIEFRVP [W20E], the protein stability index was 3.74.

As to LKGAFPARLKKVLIHGAPIWFRVP [V15H], the protein stability index was 2.46.

As for LKGAFPAGLKKVLIVGAPIWFRVP [R8G], the protein stability index is 2.76.

Turning to LKGAFPARLKKVLAVGAPIWFRVP [I14A], the protein stability index came to 4.13.

As for LKGAFPARLKKVLIVGNPIWFRVP [A17N], the protein stability index came to 2.61.
